In patent US20170363643A1:

What was measured:
[1] = target: endogenous SMN protein in human CSF (human) (UniProt Q16637); test: Erenna sandwich assay, capture MABE230; human CSF sample 4, unspiked (endogenous SMN only)
[2] = target: His-tagged recombinant human SMN protein (ProteinTech, catalog # ag14333) (human) (UniProt Q16637); test: Erenna sandwich assay, capture MABE230; human CSF sample 2 spiked with recombinant SMN 5.0 pg/mL (endogenous SMN also present)
[3] = target: His-tagged recombinant human SMN protein (ProteinTech, catalog # ag14333) (human) (UniProt Q16637); test: Erenna sandwich assay, capture MABE230; SMN 2 pg/mL, MPs 10 µg/well, Det Ab 500 ng/mL, Cap Ab/MP 12.5 µg/mg
[4] = target: His-tagged recombinant human SMN protein (ProteinTech, catalog # ag14333) (human) (UniProt Q16637); test: Erenna sandwich assay, capture MABE230; human CSF sample 1 spiked with recombinant SMN 10.0 pg/mL (endogenous SMN also present)
[5] = target: His-tagged recombinant human SMN protein (ProteinTech, catalog # ag14333) (human) (UniProt Q16637); test: Erenna sandwich assay, capture MABE230 12.5 µg/mg MPs; Det Ab 500 ng/mL; SMN 200.00 pg/mL
[6] = target: His-tagged recombinant human SMN protein (ProteinTech, catalog # ag14333) (human) (UniProt Q16637); test: BLI (BLItz), His-tagged SMN immobilised on the biosensor tip, antibody in solution
[7] = target: His-tagged recombinant human SMN protein (ProteinTech, catalog # ag14333) (human) (UniProt Q16637); test: Erenna sandwich assay, capture MABE230 12.5 µg/mg MPs; Det Ab 500 ng/mL; SMN 0.06 pg/mL
[8] = target: His-tagged recombinant human SMN protein (ProteinTech, catalog # ag14333) (human) (UniProt Q16637); test: Erenna sandwich assay, capture MABE230; SMN 2 pg/mL, MPs 10 µg/well, Det Ab 50 ng/mL, Cap Ab/MP 25 µg/mg
[9] = target: His-tagged recombinant human SMN protein (ProteinTech, catalog # ag14333) (human) (UniProt Q16637); test: Erenna sandwich assay, capture MABE230 12.5 µg/mg MPs; Det Ab 500 ng/mL; SMN 0.12 pg/mL
[10] = target: His-tagged recombinant human SMN protein (ProteinTech, catalog # ag14333) (human) (UniProt Q16637); test: Erenna sandwich assay, capture MABE230; SMN 2 pg/mL, MPs 5 µg/well, Det Ab 1000 ng/mL, Cap Ab/MP 25 µg/mg
[11] = target: His-tagged recombinant human SMN protein (ProteinTech, catalog # ag14333) (human) (UniProt Q16637); test: Erenna sandwich assay, capture MABE230; SMN 2 pg/mL, MPs 5 µg/well, Det Ab 100 ng/mL, Cap Ab/MP 12.5 µg/mg
[12] = target: His-tagged recombinant human SMN protein (ProteinTech, catalog # ag14333) (human) (UniProt Q16637); test: Erenna sandwich assay, capture MABE230 12.5 µg/mg MPs; Det Ab 1000 ng/mL; SMN 0.93 pg/mL
[13] = target: His-tagged recombinant human SMN protein (ProteinTech, catalog # ag14333) (human) (UniProt Q16637); test: Erenna sandwich assay, capture MABE230 12.5 µg/mg MPs; Det Ab 1000 ng/mL; SMN 0.12 pg/mL
[14] = target: His-tagged recombinant human SMN protein (ProteinTech, catalog # ag14333) (human) (UniProt Q16637); test: Erenna sandwich assay, capture MABE230; human CSF sample 5 spiked with recombinant SMN 5.0 pg/mL (endogenous SMN also present)
[15] = target: His-tagged recombinant human SMN protein (ProteinTech, catalog # ag14333) (human) (UniProt Q16637); test: Erenna sandwich assay, capture MABE230 12.5 µg/mg MPs; Det Ab 500 ng/mL; SMN 0.93 pg/mL
[16] = target: His-tagged recombinant human SMN protein (ProteinTech, catalog # ag14333) (human) (UniProt Q16637); test: Erenna sandwich assay, capture MABE230 12.5 µg/mg MPs; Det Ab 1000 ng/mL; SMN 0.23 pg/mL
[17] = target: His-tagged recombinant human SMN protein (ProteinTech, catalog # ag14333) (human) (UniProt Q16637); test: Erenna sandwich assay, capture MABE230; SMN 2 pg/mL, MPs 10 µg/well, Det Ab 500 ng/mL, Cap Ab/MP 25 µg/mg
[18] = target: His-tagged recombinant human SMN protein (ProteinTech, catalog # ag14333) (human) (UniProt Q16637); test: Erenna sandwich assay, capture MABE230 12.5 µg/mg MPs; Det Ab 1000 ng/mL; SMN 3.70 pg/mL
[19] = target: His-tagged recombinant human SMN protein (ProteinTech, catalog # ag14333) (human) (UniProt Q16637); test: Erenna sandwich assay, capture MABE230 12.5 µg/mg MPs; Det Ab 1000 ng/mL; SMN 1.85 pg/mL
[20] = target: His-tagged recombinant human SMN protein (ProteinTech, catalog # ag14333) (human) (UniProt Q16637); test: Erenna sandwich assay, capture MABE230; SMN 2 pg/mL, MPs 10 µg/well, Det Ab 1000 ng/mL, Cap Ab/MP 25 µg/mg
[21] = target: His-tagged recombinant human SMN protein (ProteinTech, catalog # ag14333) (human) (UniProt Q16637); test: Erenna sandwich assay, capture MABE230; SMN 2 pg/mL, MPs 5 µg/well, Det Ab 1000 ng/mL, Cap Ab/MP 12.5 µg/mg

Which detected events (DE) (detected events) [1] does the source give for “ProteinTech anti-SMN2 (catalog #60154-1-Ig) (antibody)” here?
Its detected events (DE) (detected events) is 375.

And the detected events (DE) (detected events) [2]?
Its detected events (DE) (detected events) is 5310.

What about the detected events (DE) (detected events) [3] of the same substance?
The detected events (DE) (detected events) was 2120.

What about the detected events (DE) (detected events) [4] of the same substance?
Its detected events (DE) (detected events) is 9730.

And the detected events (DE) (detected events) [5]?
Its detected events (DE) (detected events) is 9460.

And the event photons (EP) (event photons) [5]?
The event photons (EP) (event photons) was 1.86e+07.

What about the Kd [6] of the same substance?
Its Kd is less than 1 pM.

And the koff [6]?
The koff was less than 1e-07 s⁻¹.

And the kon [6]?
The kon was 118000 M⁻¹ s⁻¹.

What about the detected events (DE) (detected events) [7] of the same substance?
The detected events (DE) (detected events) was 91.

And the event photons (EP) (event photons) [7]?
Its event photons (EP) (event photons) is 14200.

What about the detected events (DE) (detected events) [8] of the same substance?
The detected events (DE) (detected events) was 776.

What about the detected events (DE) (detected events) [9] of the same substance?
The detected events (DE) (detected events) was 154.

What about the event photons (EP) (event photons) [9] of the same substance?
Its event photons (EP) (event photons) is 19500.

And the detected events (DE) (detected events) [10]?
Its detected events (DE) (detected events) is 2180.

And the detected events (DE) (detected events) [11]?
Its detected events (DE) (detected events) is 753.

And the detected events (DE) (detected events) [12]?
Its detected events (DE) (detected events) is 1170.

And the event photons (EP) (event photons) [12]?
The event photons (EP) (event photons) was 171000.

And the detected events (DE) (detected events) [13]?
Its detected events (DE) (detected events) is 193.

What about the event photons (EP) (event photons) [13] of the same substance?
The event photons (EP) (event photons) was 26300.

What about the detected events (DE) (detected events) [14] of the same substance?
The detected events (DE) (detected events) was 6070.

What about the detected events (DE) (detected events) [15] of the same substance?
Its detected events (DE) (detected events) is 967.

What about the event photons (EP) (event photons) [15] of the same substance?
Its event photons (EP) (event photons) is 135000.

And the detected events (DE) (detected events) [16]?
Its detected events (DE) (detected events) is 330.

And the event photons (EP) (event photons) [16]?
Its event photons (EP) (event photons) is 44800.

And the detected events (DE) (detected events) [17]?
Its detected events (DE) (detected events) is 2400.

What about the detected events (DE) (detected events) [18] of the same substance?
The detected events (DE) (detected events) was 4330.

And the event photons (EP) (event photons) [18]?
The event photons (EP) (event photons) was 706000.

What about the detected events (DE) (detected events) [19] of the same substance?
Its detected events (DE) (detected events) is 2140.

What about the event photons (EP) (event photons) [19] of the same substance?
The event photons (EP) (event photons) was 312000.

And the detected events (DE) (detected events) [20]?
The detected events (DE) (detected events) was 2670.

What about the detected events (DE) (detected events) [21] of the same substance?
Its detected events (DE) (detected events) is 2590.
